According to the RNAGym collection of RNA variant scans (doi:10.1073/pnas.2313332121):
Fewer inactive variants are shown than the library holds.

B1: TPR 5TU (parent)
chain: GGAUCUUCUCGAUCUAACAAAAAAGACAAAUCUGCCACAAAGCUUGAGAGCAUCUUCGGAUGCAGAGGCGGCAGCCUUCGGUGGCGCGAUAGCGCCAACGUUCUCAACUAUGACACGCAAAACGCGUGCUCCGUUGAAUGGAGUUUAUCAUG

Variants of: B1
Assay: polymerase ribozyme fitness, log enrichment relative to wild type (log ratio); higher = more active; in vitro selection for triplet polymerase activity
Summary of the method: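 Libraries of mutants in each subunit of a heterodimeric triplet polymerase ribozyme were generated by PCR and transcribed. In triplicate, each went through one in vitro selection round: annealing with biotinylated primer, partner subunit and triplets; frozen incubation at −7 °C; gel excision of extended constructs; streptavidin-bead capture; RT-PCR. Fitness, taken from Illumina sequencing of input and output libraries, is the logarithm of a genotype's enrichment over wild-type enrichment, averaged across replicates with inverse-variance weights. The logarithm is base 2, and genotypes needed ≥10 input reads and ≥1 read per output to be kept.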

Row | Variant | polymerase ribozyme fitness (log ratio)
1 | U33A G84A | -3.81
2 | U33C G42A C93U C108U | ≤ -4.2
3 | U31C A41U G48C U55G A89U | -2.77
4 | G34U G48U G59C G67C G81C U134A G141U | ≤ -4.2
5 | C32G A91G | ≤ -4.2
6 | C35G C76G A89G | -3.96
7 | C32U A52U G84U | ≤ -4.2
8 | C35A G65A U144C | ≤ -4.2
9 | A30U U78C G94U A98G G152A | ≤ -4.2
10 | U33G C85U U139G | -3.72
11 | U31G C35A A47C G74U C87G A142C | ≤ -4.2
12 | C35A C54U G94U U135G G140C | ≤ -4.2
13 | U31G G92U U127G | -4.07
14 | C35A G68A C95G C132G | ≤ -4.2
15 | G34A U82G C96A C99G | ≤ -4.2
16 | U33G U44A C93A C103A C105G G133C | ≤ -4.2
17 | C32A A52G U53A G65C C99U G143U | ≤ -4.2
18 | C32G G48A G67U C85U C93G U145G | ≤ -4.2
19 | C32U G65A G71C G94U | ≤ -4.2
20 | U31G C54G A60G C85A C99A | ≤ -4.2
21 | U33G A47U A49G C75A C76U A91U C93G A98U C114A G136C | ≤ -4.2
22 | C35G A41U G136U G141A | ≤ -4.2
23 | U33G U53A G59C G84A G94A C125G U144C | ≤ -4.2
24 | C35G A40U G71A C87U G136U U148G | ≤ -4.2

Row | Variant | polymerase ribozyme fitness (log ratio)
25 | A30U U53G G84A | -4.15
26 | C32G A64U C105U G152U | ≤ -4.2
27 | U33C A47G C93U C103A C132U A137C | ≤ -4.2
28 | U33G A41U C51A G67C C72U | -3.95
29 | U31A C75G C76G G83U C95U A115U | ≤ -4.2
30 | U33A A120U | -4.01
31 | U31C G92A C118G | -2.66
32 | C35G G94U A97U | -4.17
33 | U33C C57U U61A G84A U101G G140U U145A | -4
34 | G34A G71A G88C A91C | ≤ -4.2
35 | C35U A52C G58U G59C G70U C85A G152U | ≤ -4.2
36 | A30U G94A G141A | ≤ -4.2
37 | C32U G68A G80C C96G A150U | ≤ -4.2
38 | G34U U55A A60C A73C C85U G136C U144A | ≤ -4.2
39 | U33C G59C A64G C96G U130C | ≤ -4.2
40 | U33G C43A C57A A60C G74A G83A C85G A150U | ≤ -4.2
41 | U31G G50C G58U G88U | ≤ -4.2
42 | C35U A41G G94A A98U G152U | -3.4
43 | G34A A37G U61C | ≤ -4.2
44 | C32G G94A A97U | ≤ -4.2
45 | C35A G65A | -3.77
46 | C32G G42C A47G G59C A91U A107G | ≤ -4.2
47 | U31A C69A G92U A115U | -3.26
48 | C32U C96U C149U U151A | ≤ -4.2

Row | Variant | polymerase ribozyme fitness (log ratio)
49 | C35G U55A A60C C75G C114G A119U | ≤ -4.2
50 | A30U G42U G65A G86U A121U | ≤ -4.2
51 | G34C U56A G128A U135C G140U | ≤ -4.2
52 | U33A A98G G124C | ≤ -4.2
53 | G34A C36U A60C G71A G84A | ≤ -4.2
54 | G34A A39C C93A U104C | ≤ -4.2
55 | G34U A41U G84A U145C | -3.69
56 | A30U G58C C95U U135C U144A | ≤ -4.2
57 | U33A A73U C85U U127G | -2.45
58 | U33A A39U C54U G92A C96G A106U A137G A138C | ≤ -4.2
59 | U31C G48A C79A C105U A120G G141U A147C | ≤ -4.2
60 | U33C C54A U55A G83A C96A C125G G126C U127G | ≤ -4.2
61 | C32A A47C A122G A147C | ≤ -4.2
62 | U31G A39G C85U G94C | -3.27
63 | U33G A47G G81A | -4
64 | U31C C87A C108U U148C | -3.95
65 | U31G C99G U102G C108A C125U U127G U145G | ≤ -4.2
66 | C35U A64G G81U G92A C93A A115U U134A U151G | ≤ -4.2
67 | U33G C36U A60U C87U A91G C108A U109A | ≤ -4.2
68 | C35A A98U A107U A137U | ≤ -4.2
69 | U31C A49C C93G U135G G143A | ≤ -4.2
70 | C35G G80A A91U C105U | ≤ -4.2
71 | C35A C69A C99U U127C | ≤ -4.2
72 | C35U A49C G94C A98G C118U | ≤ -4.2

Row | Variant | polymerase ribozyme fitness (log ratio)
73 | C35G G126U | -4.16
74 | C32A G84A A89G A97G U134A U148A | ≤ -4.2
75 | U31A G143A | -0.454
76 | C35G C85U | ≤ -4.2
77 | G34C C85G G141U | -4.04
78 | U31A C79U | -2.71
79 | U31G A37C C95U U109G G143U G152C | ≤ -4.2
80 | U31G A73G G84A | 0.0111
81 | A30U G83A C95A U135G | ≤ -4.2
82 | A30U G86A C96U A107U A142U C149G | ≤ -4.2
83 | C32U G59U C85U A115G | -3.62
84 | A30U G68C G81C G94A A98C U104C | ≤ -4.2
85 | C32U G68A | -3.89
86 | C35A G94C G128A | ≤ -4.2
87 | C35G A52G C96U G140U | -4.08
88 | C32A G86C | ≤ -4.2
89 | G34A G94U U101A | ≤ -4.2
90 | U31G C93U C99U C116A A119G A142C | ≤ -4.2
91 | A30U U33C C36G U56A C85U C114G | -3.84
92 | C35U A60G G83A A150G | -2.56
93 | C35A C51U G59C A64G G83A | ≤ -4.2
94 | U31A U78A C123G U135G G140U | ≤ -4.2
95 | C32U A66G A98U | -4.11
96 | C35G A47C G67C A91C C103G | ≤ -4.2

Row | Variant | polymerase ribozyme fitness (log ratio)
97 | U31A A91G A106G G117A A119U U146C | -1.71
98 | A30U G80A G81U C85U U104A C105G | ≤ -4.2
99 | C32A G71U A91G A119G A120U U127C G136C | ≤ -4.2
100 | G34A U56C G126U | -1.64
101 | U33G C57G U104G | ≤ -4.2
102 | U31A G100U | ≤ -4.2
103 | C32G U56A C57U C76A C93A C118G U135C | ≤ -4.2
104 | U31G C38A U45A G83C C95A | ≤ -4.2
105 | U31A G50A C57U C85U A119C | -1.76
106 | G34A U77A G88A | ≤ -4.2
107 | U31C G94C | 0.811
108 | C32U G81C C114G | ≤ -4.2
109 | C32G U45A U56A A91U C93G A107C | ≤ -4.2
110 | G34A A41C C54A U55A C95A C103A A150C | ≤ -4.2
111 | G34A U55G | -0.61
112 | G34A G70A A89G A122G | -4.01
113 | U31A C93A C129U | -2.44
114 | G34U C96G U144C | ≤ -4.2
115 | C32G G58A C93A G128A | -4.2
116 | A30U G46A U55A G74A U145A | ≤ -4.2
117 | C35U A41U C54U C76G C85A A98G | ≤ -4.2
118 | C32G U56A | -4.1
119 | C32G A37U U53A | ≤ -4.2
120 | G34U G58U C87A A98C G143C | ≤ -4.2

Row | Variant | polymerase ribozyme fitness (log ratio)
121 | U33C A37C A64U | ≤ -4.2
122 | C32G A60G U144G | ≤ -4.2
123 | U33C C38G C93G A137G G141C | ≤ -4.2
124 | U31A C95G A119U | -1.25
125 | U33C C87A | -3.95
126 | U33G C54A C96A A98U | -4.06
127 | C32A A37C C54G G83A C118A G136U A138C G141C U145G | ≤ -4.2
128 | U31G G46C C79U G117C U144C | ≤ -4.2
129 | U31A A47G A73U G83A | -3.5
130 | U33A C105U | -3.8
131 | U31C A89C C93U U135A | -2.87
132 | C32U C51G G70A C76U G83U G84A A98G U135G | ≤ -4.2
133 | U33G C38A A39U C76U C99U A150U | ≤ -4.2
134 | C35G G48U C57U A110U C116U A138C | ≤ -4.2
135 | C35A C72U C118A G126C | ≤ -4.2
136 | U31G A49C A52G A97C A120U U135C U148G | ≤ -4.2
137 | A30U U56G G58U A73G C85U C105U G141C | ≤ -4.2
138 | U31G A113U U134G | -3.56
139 | U31G A40U G42A C85A U148C | ≤ -4.2
140 | U33A G80C C99U C131U | ≤ -4.2
141 | U31A C103U | 0.00968
142 | G34A U55G G88U C105A | ≤ -4.2
143 | C32U C116G | -2.9
144 | U33G C96A | -1.72

Row | Variant | polymerase ribozyme fitness (log ratio)
145 | U33G C36A G50A A52C G84A A97C A138C | -3.92
146 | U33C C43G G50C G58A G86A C105A A137G | ≤ -4.2
147 | U31A G46A U82C A89G U145C | -3.66
148 | U31C G81C C85U C99G | -0.592
149 | U31C C95U A97U C99U G133U A150G | ≤ -4.2
150 | C35U A106C U144A | -2.33
151 | A30U U56A C93U G141A | ≤ -4.2
152 | U33A G71U C79G C87G C95G | ≤ -4.2
153 | C32G A40U C95A | -3.93
154 | C32G U33G G92A C114U | -4.15
155 | C35A U55G C57U C93A C96G C118U | ≤ -4.2
156 | C35A C57A G83U G94C | ≤ -4.2
157 | U31A C85U U101A A150U | -1.46
158 | C35G G48A G58U C79U C85U | ≤ -4.2
159 | U31A A120G | 0.523
160 | C35G G83C | -4.19
161 | C32G U53A G86C A91C A120U A121U | ≤ -4.2
162 | U33C C93A C99G G128U | ≤ -4.2
163 | G34U G84A C95U C114G | -4.02
164 | U31A A37U U90G C93U C125G G141A | ≤ -4.2
165 | U31G A40G C54A C93A C103A U109A U134A G136U | ≤ -4.2
166 | C35G C54G C79U U127A | ≤ -4.2
167 | U31G G84U | -0.431
